Laboratory results reported in patent publication US20140308301A1.

How the values were obtained:
human CD44 (human) [1] = biological target: human CD44 (human) (UniProt P16070); test: flow cytometry, Alexa647-RG7356 on CLL B cells with ZAP-70 expression
human CD44 (human) [2] = biological target: human CD44 (human) (UniProt P16070); test: flow cytometry, Alexa647-RG7356 on CD19+CD5+ CLL B cells (n=59)
human CD44 (human) [3] = biological target: human CD44 (human) (UniProt P16070); test: flow cytometry, Alexa647-RG7356 on CLL B cells with mutated IGVH gene
human CD44 (human) [4] = biological target: human CD44 (human) (UniProt P16070); test: flow cytometry, Alexa647-RG7356 on CLL B cells with low or no ZAP-70 expression
human CD44 (human) [5] = biological target: human CD44 (human) (UniProt P16070); test: cell-based or functional assay
human CD44 (human) [6] = biological target: human CD44 (human) (UniProt P16070); test: flow cytometry, Alexa647-RG7356 on CD19+ normal B cells of healthy adults (n=8)
human CD44 (human) [7] = biological target: human CD44 (human) (UniProt P16070); test: flow cytometry, Alexa647-RG7356 on CLL B cells with unmutated IGVH gene

- median MFIR (MFI of CD44 mAb divided by MFI of control mAb) (human CD44 (human) [1]): 161
- median MFIR (MFI of CD44 mAb divided by MFI of control mAb) (human CD44 (human) [2]): 132
- median MFIR (MFI of CD44 mAb divided by MFI of control mAb) (human CD44 (human) [3]): 118
- median MFIR (MFI of CD44 mAb divided by MFI of control mAb) (human CD44 (human) [4]): 119
- internalization of cell surface CD44 (reduction of MFI of Alexa647-conjugated RG7356 on CLL cells at 37 C, flow cytometry) (human CD44 (human) [5]): > 40%
- median MFIR (MFI of CD44 mAb divided by MFI of control mAb) (human CD44 (human) [6]): 112
- median MFIR (MFI of CD44 mAb divided by MFI of control mAb) (human CD44 (human) [7]): 161
Substance: humanized anti-CD44 monoclonal antibody (RG7356, Roche)
